We go through ten molecules from patent publication US20110262445A1 (CEPHALON AUSTRALIA, published 2011).

Where only a bound is given, the exact number is not on record here.

Test [1] concerns the target T1, human IL-12 (human, UniProt P29460 23-328; P29459 23-219).
T1 construct: Recombinant (Peprotech); FLAG-tagged IL-12 in the flow cytometry assays, biotinylated in the IL-12Rβ2 assay; also called hIL-12
T1 sequence 1: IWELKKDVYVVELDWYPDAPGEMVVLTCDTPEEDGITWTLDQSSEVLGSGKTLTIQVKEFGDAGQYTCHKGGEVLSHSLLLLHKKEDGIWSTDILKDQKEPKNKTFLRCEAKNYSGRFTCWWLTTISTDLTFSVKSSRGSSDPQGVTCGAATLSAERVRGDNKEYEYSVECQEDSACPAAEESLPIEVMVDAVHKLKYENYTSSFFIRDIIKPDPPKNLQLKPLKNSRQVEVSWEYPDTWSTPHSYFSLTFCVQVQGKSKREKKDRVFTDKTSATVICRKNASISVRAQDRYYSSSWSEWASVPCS
T1 sequence 2: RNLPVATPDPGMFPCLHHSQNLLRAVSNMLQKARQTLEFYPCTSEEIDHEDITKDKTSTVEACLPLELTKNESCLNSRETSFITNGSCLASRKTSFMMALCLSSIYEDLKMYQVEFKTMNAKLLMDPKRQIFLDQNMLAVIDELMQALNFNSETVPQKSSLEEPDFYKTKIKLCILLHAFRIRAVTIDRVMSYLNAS
Put plainly: SPR, IgG on Protein A. On the procedure: (§1) Using a SPR 3000, Protein A was immobilized onto FC1 and FC2 (or alternatively FC3 and FC4) of a CM5 research grade sensor chip using amine coupling, giving approximately […] RU. FC1 was used a blank throughout the experiments. The experiments were run in HBS-P buffer (SPR). At a flow rate of 20 μl/min, 20 μl of 5 μg/mL of antibody was passed over FC2. IL-12, IL-23 or IL-12p40 (Peprotech) were passed over the surface of FC1 and FC2 at concentrations ranging from 66 nM to 2 nM. Regeneration of the surface was performed using 10 mM Glycine, pH 1.0. The sensorgram data from FC2 was subtracted from FC1 and a buffer only control. The curves were fitted using a 1:1 Langmuir equation to generate the kd, ka and KD values. All curves were fitted with a χ² of less then 2.0 where possible.
(In SPR one partner is held on a chip, and binding of the other changes the refractive index at the surface.)

The target in test [2] is T2, human IL-23 (human, UniProt P29460 23-328; Q9NPF7 20-189).
T2 construct: Recombinant (Ebioscience); HIS-tagged in flow cytometry, biotinylated in some assays; also called hIL-23; rhIL-23
T2 sequence 1: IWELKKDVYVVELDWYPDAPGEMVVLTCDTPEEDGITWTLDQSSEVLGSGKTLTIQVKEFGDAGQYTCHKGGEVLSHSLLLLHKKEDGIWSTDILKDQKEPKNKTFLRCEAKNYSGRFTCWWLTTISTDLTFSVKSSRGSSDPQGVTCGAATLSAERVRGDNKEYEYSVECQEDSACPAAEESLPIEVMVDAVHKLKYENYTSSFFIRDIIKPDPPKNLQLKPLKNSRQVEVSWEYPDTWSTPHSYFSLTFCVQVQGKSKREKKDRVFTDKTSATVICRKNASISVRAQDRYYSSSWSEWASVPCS
T2 sequence 2: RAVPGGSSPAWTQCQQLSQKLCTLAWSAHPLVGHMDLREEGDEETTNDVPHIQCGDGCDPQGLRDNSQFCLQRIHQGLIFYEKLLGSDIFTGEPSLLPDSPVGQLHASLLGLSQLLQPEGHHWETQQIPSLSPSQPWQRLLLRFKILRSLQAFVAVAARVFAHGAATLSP
Put plainly: SPR, IgG on Protein A. On the procedure:
as §1

The target in test [3] is T2, human IL-23. Put plainly: ELISA, coated IL-23. On the procedure:
This cysteine at the start of CDR3 could be oxidized, causing heterogeneity in any resulting antibody product. It could also form complexes by disulphide bond formation. Therefore, each of the other 18 (the exceptions being the original Cys and Trp) amino acids was substituted in this position using gene synthesis, and the antibodies were expressed transiently (Antibodies 5, 6, 7, 8, 9, 10, 11, 12, 13, 14, 15, 16, 17, 18, 19, 20, 21, 22). An ELISA was performed on these antibodies (FIG. 9). Some of the antibodies retained binding activity for both IL-12 and IL-23, others only for one cytokine or the other, while others minimally bound to either cytokine.
IL-12 (Peprotech), IL-23 (Ebioscience™), IL-12p40 (Ebioscience™) or IL-12p80 (Peprotech), was diluted to 1 μg/mL in carbonate coating buffer ([…] pH 9.6) and coated onto a 96 well plate (Nunc™, Maxisorp™) overnight at 4° C. The plate was then washed three times with wash buffer (0.01M PBS pH 7.2, 0.05% Tween-20) and then three times with 0.01M PBS pH 7.2. The wells were then blocked by adding 200 μl of blocking buffer (1% w/v BSA in 0.01 M PBS pH 7.2) to each well and incubating the plate at 25° C. for 1 hour. The antibody was diluted in antibody diluent (1% w/v BSA, 0.05% Tween-20 in 0.01M PBS pH 7.2) sufficient to generate a titration curve. The wells were incubated with the antibody for 1 hour at 25° C. The plate was then washed as previously described. Goat anti-human immunoglobulin G (H+L) antibody HRP conjugate (Zymed®) at 1:2000 in antibody diluent was used to detect bound primary antibody. Goat anti-murine immunoglobulin antibody HRP conjugate (Dako) at 1:2000 in antibody diluent was used to detect bound murine antibody. After incubation at 25° C. for 1 hour the plate was washed again as previously described. TMB substrate solution (Zymed®) was added to each well and the colour allowed to develop; the reaction was terminated by adding 1M HCl to the wells. The absorbance of each well was determined at 450 nm (ref. 620 nm).

Test [4] addresses T1, human IL-12. Put plainly: ELISA, coated IL-12. In a few lines:
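Maxisorp plates were coated overnight at 4° C with cytokine at 1 μg/mL in carbonate buffer pH 9.6, then blocked for 1 hour at 25° C with 1% BSA in PBS. Antibody titrations were allowed to bind for 1 hour at 25° C and detected with goat anti-human IgG or anti-murine immunoglobulin HRP (1:2000, 1 hour), followed by TMB development stopped with 1M HCl. Binding is reported as absorbance. Readings were taken at 450 nm against a 620 nm reference.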

The target in test [5] is T2, human IL-23. Nature of the test: SPR, single 81 nM analyte, scFv via FLAG; LOD about 1 × 10^-5 s^-1.
The target of test [6] is T2, human IL-23. Put plainly: SPR, single 81 nM analyte, scFv via FLAG.

B1: Antibody 3 (antibody, human IgG1, kappa, V domains shown)
VH: EVQLQQSGADLVRSGASIKLSCTASGFNIKDYYMHWVKQRPEQGLEWIGWIDPENGDTEYAPKFQGKATMTADTSSNTAYLQLSSLTSEDTAVYYCNACKELRYFDVWGAGTTVTVSS
VL: DIVLTQSPATLSVTPGDSVSLSCRASQSISINLHWYQQKSHESPRLLIKFASQSISGIPSRFSGYGSGTDFTLSINSVETEDFGRYFCQQSNSFPLTFGAGTKLELKR
notes: Antibody 1 with light chain W94F
What is called Kd is the free concentration of one partner at which half of the binding sites on the other are occupied at equilibrium, for simple one-to-one binding. A word on the koff: it is the first-order rate constant of dissociation. Read a low koff as a long-lived complex. Broadly, the kon is a measure of how fast the partners come together. Low readings indicate slow association, high ones fast association. Take B1: in test [1], binding was characterised by a dissociation constant (Kd) of 0.0438 nM, the koff stood at 9.39e-05 s⁻¹ and the kon turned out to be 2.15e+06 M⁻¹ s⁻¹. Moreover, in test [2], the Kd worked out at 0.0896 nM, the off-rate constant (koff) amounted to 0.000111 s⁻¹ and the kon came to 1.24e+06 M⁻¹ s⁻¹.

B2: Antibody 17 (antibody, human IgG1, kappa, V domains shown)
VH: EVQLQQSGADLVRSGASIKLSCTASGFNIKDYYMHWVKQRPEQGLEWIGWIDPENGDTEYAPKFQGKATMTADTSSNTAYLQLSSLTSEDTAVYYCNAFKELRYFDVWGAGTTVTVSS
VL: DIVLTQSPATLSVTPGDSVSLSCRASQSISINLHWYQQKSHESPRLLIKFASQSISGIPSRFSGYGSGTDFTLSINSVETEDFGRYFCQQSNSWPLTFGAGTKLELKR
As to B2, the binding result in test [3] and in test [4] was “binds” in each case.

B3: Antibody 22 (antibody, human IgG1, kappa, V domains shown)
VH: EVQLQQSGADLVRSGASIKLSCTASGFNIKDYYMHWVKQRPEQGLEWIGWIDPENGDTEYAPKFQGKATMTADTSSNTAYLQLSSLTSEDTAVYYCNAVKELRYFDVWGAGTTVTVSS
VL: DIVLTQSPATLSVTPGDSVSLSCRASQSISINLHWYQQKSHESPRLLIKFASQSISGIPSRFSGYGSGTDFTLSINSVETEDFGRYFCQQSNSWPLTFGAGTKLELKR
On to B3, for which the binding result in test [3] and in test [4] was “binds” throughout.

B4: Antibody 18 (antibody, human IgG1, kappa, V domains shown)
VH: EVQLQQSGADLVRSGASIKLSCTASGFNIKDYYMHWVKQRPEQGLEWIGWIDPENGDTEYAPKFQGKATMTADTSSNTAYLQLSSLTSEDTAVYYCNAPKELRYFDVWGAGTTVTVSS
VL: DIVLTQSPATLSVTPGDSVSLSCRASQSISINLHWYQQKSHESPRLLIKFASQSISGIPSRFSGYGSGTDFTLSINSVETEDFGRYFCQQSNSWPLTFGAGTKLELKR
Consider B4, for which the binding result in test [3] and in test [4] was “binds” throughout.

B5: Antibody 4 (antibody, human IgG1, kappa, V domains shown)
VH: EVQLQQSGADLVRSGASIKLSCTASGFNIKDYYLHWVKQRPEQGLEWIGWIDPENGDTEYAPKFQGKATMTADTSSNTAYLQLSSLTSEDTAVYYCNACKELRYFDVWGAGTTVTVSS
VL: DIVLTQSPATLSVTPGDSVSLSCRASQSISINLHWYQQKSHESPRLLIKFASQSISGIPSRFSGYGSGTDFTLSINSVETEDFGRYFCQQSNSWPLTFGAGTKLELKR
notes: Antibody 1 with heavy chain M34L
In test [1], B5 had a Kd of 0.133 nM, a koff of 0.000204 s⁻¹ and an association rate constant (kon) of 1.54e+06 M⁻¹ s⁻¹. Also, in test [2], binding was characterised by a dissociation constant (Kd) of 0.127 nM, the koff is 0.000158 s⁻¹ and the kon stood at 1.25e+06 M⁻¹ s⁻¹.

B6: Antibody 13 (antibody, human IgG1, kappa, V domains shown)
VH: EVQLQQSGADLVRSGASIKLSCTASGFNIKDYYMHWVKQRPEQGLEWIGWIDPENGDTEYAPKFQGKATMTADTSSNTAYLQLSSLTSEDTAVYYCNAIKELRYFDVWGAGTTVTVSS
VL: DIVLTQSPATLSVTPGDSVSLSCRASQSISINLHWYQQKSHESPRLLIKFASQSISGIPSRFSGYGSGTDFTLSINSVETEDFGRYFCQQSNSWPLTFGAGTKLELKR
With B6, the binding result in test [3] and in test [4] was “binds” throughout.

B7: Antibody 7 (antibody, human IgG1, kappa, V domains shown)
VH: EVQLQQSGADLVRSGASIKLSCTASGFNIKDYYMHWVKQRPEQGLEWIGWIDPENGDTEYAPKFQGKATMTADTSSNTAYLQLSSLTSEDTAVYYCNANKELRYFDVWGAGTTVTVSS
VL: DIVLTQSPATLSVTPGDSVSLSCRASQSISINLHWYQQKSHESPRLLIKFASQSISGIPSRFSGYGSGTDFTLSINSVETEDFGRYFCQQSNSWPLTFGAGTKLELKR
notes: Antibody 1 with heavy chain C95N
In test [1], B7 yielded a Kd of 0.0918 nM, a koff of 0.000167 s⁻¹ and a kon of 1.82e+06 M⁻¹ s⁻¹. In test [2], the Kd came to 0.0722 nM, the koff stood at 0.000147 s⁻¹ and the kon is 2.03e+06 M⁻¹ s⁻¹.

B8: Antibody 19 (antibody, human IgG1, kappa, V domains shown)
VH: EVQLQQSGADLVRSGASIKLSCTASGFNIKDYYMHWVKQRPEQGLEWIGWIDPENGDTEYAPKFQGKATMTADTSSNTAYLQLSSLTSEDTAVYYCNASKELRYFDVWGAGTTVTVSS
VL: DIVLTQSPATLSVTPGDSVSLSCRASQSISINLHWYQQKSHESPRLLIKFASQSISGIPSRFSGYGSGTDFTLSINSVETEDFGRYFCQQSNSWPLTFGAGTKLELKR
For B8, the binding result in test [3] and in test [4] was “binds” in each case.

B9: Antibody 20 (antibody, human IgG1, kappa, V domains shown)
VH: EVQLQQSGADLVRSGASIKLSCTASGFNIKDYYMHWVKQRPEQGLEWIGWIDPENGDTEYAPKFQGKATMTADTSSNTAYLQLSSLTSEDTAVYYCNATKELRYFDVWGAGTTVTVSS
VL: DIVLTQSPATLSVTPGDSVSLSCRASQSISINLHWYQQKSHESPRLLIKFASQSISGIPSRFSGYGSGTDFTLSINSVETEDFGRYFCQQSNSWPLTFGAGTKLELKR
For the molecule B9, the binding result in test [3] and in test [4] was “binds” in each case.

B10: scFv combo. # 1 (scFv)
scFv: QVQLVQSGAEVKKPGASVKVSCKASGYTFTDYYLHWVRQAPGRGLEWMGWIDPENGDTEHAPKFQGRVTMTTDTSTSTAYMELRSLRSDDTAVYYCNANKELRYFDVWGQGTMVTVSSGGGGSGGGGSGGGGSEIVMTQSPATLSVSPGERATLSCRASQSISINLHWYQQKPGQAPRLLIYFASQSTSGIPARFSGSGSGTEFTLTISSLQSEDFAVYYCQQSNSFPLTFGGGTKVEIKR
notes: scFv-80 with VH Q43R, Y59H; VL I55T; not shown: proprietary C-terminal FLAG tag
In the case of B10, in test [5], the koff was under 1e-05 s⁻¹. Also, in test [6], the Kd is at most 0.032 nM and the on-rate constant (kon) stood at 230000 M⁻¹ s⁻¹.
